Data from patent US20250011363A1, “OPTIMIZED SHORTENED PEPTIDE THAT BINDS TO ACETYLCHOLINE RECEPTOR, AND USE THEREOF” (SKINMED CO., LTD., priority 2021, published 2025).

target: acetylcholine receptor (Homo sapiens, UniProt P02708); assay: SPR binding affinity (RU) of optimized 5mer/6mer/7mer peptides, Examples 6-7; conditions: 6mer-1 Top sequence; SPR; peptides tested at 10 μM
Outline: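 Response units from SPR give the binding values listed. Each synthesized peptide was run at 10 μM over the receptor.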

Chain of acetylcholine receptor (P02708 21-457): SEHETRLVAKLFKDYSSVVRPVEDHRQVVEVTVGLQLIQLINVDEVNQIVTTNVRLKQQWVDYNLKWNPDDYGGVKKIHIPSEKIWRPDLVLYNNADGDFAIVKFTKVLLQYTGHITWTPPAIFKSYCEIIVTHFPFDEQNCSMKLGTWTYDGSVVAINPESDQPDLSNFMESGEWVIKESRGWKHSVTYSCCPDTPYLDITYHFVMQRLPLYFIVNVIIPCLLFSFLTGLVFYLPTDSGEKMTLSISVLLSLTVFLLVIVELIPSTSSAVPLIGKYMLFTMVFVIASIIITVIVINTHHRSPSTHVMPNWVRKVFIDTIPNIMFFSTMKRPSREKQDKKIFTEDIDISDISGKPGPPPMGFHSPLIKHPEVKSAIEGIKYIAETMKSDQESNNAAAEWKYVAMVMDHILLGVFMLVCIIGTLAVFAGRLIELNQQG

Row | Substance | Binding affinity [Ru]
1 | 6mer-1-1225 (RKLICK) | 142

same assay, conditions: 6mer-2 Top sequence; SPR; peptides tested at 10 μM

Row | Substance | Binding affinity [Ru]
2 | 6mer-2-1 (RRRLKK) | 131
3 | 6mer-2-2 (RWYLKR) | 139
4 | 6mer-2-3 (KVYSRK) | 148
5 | 6mer-2-4 (RSYYRR) | 125
6 | 6mer-2-5 (RWVSKR) | 124
7 | 6mer-2-6 (KSICRR) | 122
8 | 6mer-2-7 (KSRCRK) | 126
9 | 6mer-2-8 (KSLQKK) | 135
10 | 6mer-2-9 (KLICRK) | 139
11 | 6mer-2-10 (KVFSKK) | 124
12 | 6mer-2-11 (RQYQRR) | 121
13 | 6mer-2-12 (RQFQRK) | 147
14 | 6mer-2-13 (RQYTRK) | 123
15 | 6mer-2-14 (RGRQKK) | 153
16 | 6mer-2-15 (KQVRKR) | 133
17 | 6mer-2-16 (KGVCRR) | 121
18 | 6mer-2-17 (RWVTRR) | 142
19 | 6mer-2-18 (RSILRR) | 124
20 | 6mer-2-19 (RSFSKK) | 135
21 | 6mer-2-20 (RVQTRR) | 137
22 | 6mer-2-21 (RLFTRK) | 141
23 | 6mer-2-22 (RQIRKK) | 124

Row | Substance | Binding affinity [Ru]
24 | 6mer-2-23 (RWVRKK) | 148
25 | 6mer-2-24 (KGIQRK) | 141
26 | 6mer-2-25 (KQVQKR) | 148
27 | 6mer-2-26 (RWRRKK) | 121
28 | 6mer-2-27 (KVIRRK) | 128
29 | 6mer-2-28 (KVLSRK) | 142
30 | 6mer-2-29 (RSQRKR) | 142
31 | 6mer-2-30 (RQFYKK) | 139
32 | 6mer-2-31 (KSYQRK) | 121
33 | 6mer-2-32 (RRLCRK) | 139
34 | 6mer-2-33 (RQFRKK) | 142
35 | 6mer-2-34 (KVFRRK) | 124
36 | 6mer-2-35 (RWISRK) | 148
37 | 6mer-2-36 (RRLQKK) | 131
38 | 6mer-2-37 (KLLYRK) | 148
39 | 6mer-2-38 (RSYYKR) | 136
40 | 6mer-2-39 (RWRYRK) | 137
41 | 6mer-2-40 (RRYRKK) | 153
42 | 6mer-2-41 (KQLCKR) | 142
43 | 6mer-2-42 (KLLSKR) | 126
44 | 6mer-2-43 (RVITKR) | 146

same assay, conditions: SPR, Resonance Units; peptides tested at 10 μM; 6mer-1 Bottom sequence

Row | Substance | Binding affinity [Ru]
45 | 6mer-1-1090 (KKTMWR) | 27
46 | 6mer-1-1091 (KKDDGK) | 32
47 | 6mer-1-1092 (RKYHDK) | 43
48 | 6mer-1-1093 (RRKSDR) | 37
49 | 6mer-1-1094 (RRMAIK) | 42
50 | 6mer-1-1095 (RRCHVK) | 27
51 | 6mer-1-1096 (RKPEPR) | 23
52 | 6mer-1-1097 (RKNCNK) | 39
53 | 6mer-1-1098 (RKKDMR) | 42
54 | 6mer-1-1099 (RRKTDR) | 24
55 | 6mer-1-1100 (KRMSHK) | 43
56 | 6mer-1-1101 (RRECDK) | 37
57 | 6mer-1-1102 (KRFTKK) | 35
58 | 6mer-1-1103 (KREDNK) | 27
59 | 6mer-1-1104 (KRNSAR) | 28
60 | 6mer-1-1105 (RRCTAR) | 40
61 | 6mer-1-1106 (KRFMNK) | 39
62 | 6mer-1-1107 (KRCPPR) | 36
63 | 6mer-1-1108 (RRAHNK) | 43
64 | 6mer-1-1109 (KRCCVR) | 41
65 | 6mer-1-1110 (RKFTER) | 24
66 | 6mer-1-1111 (RRASPR) | 38

Row | Substance | Binding affinity [Ru]
67 | 6mer-1-1112 (KKDPWK) | 27
68 | 6mer-1-1113 (RRCTMK) | 28
69 | 6mer-1-1114 (KKFNFK) | 38
70 | 6mer-1-1115 (RKCAFR) | 43
71 | 6mer-1-1116 (KRHPFR) | 35
72 | 6mer-1-1117 (KKEWFR) | 40
73 | 6mer-1-1118 (KKDTIK) | 33
74 | 6mer-1-1119 (KRIWVR) | 31
75 | 6mer-1-1120 (RRKEAK) | 22
76 | 6mer-1-1121 (KKTWWR) | 28
77 | 6mer-1-1122 (RRTMGR) | 33
78 | 6mer-1-1123 (RRDNVK) | 41
79 | 6mer-1-1124 (KKDEIR) | 21
80 | 6mer-1-1125 (KKPTDR) | 26
81 | 6mer-1-1126 (RRHCDK) | 41
82 | 6mer-1-1127 (RKMMMK) | 34
83 | 6mer-1-1128 (KKKKPK) | 39
84 | 6mer-1-1129 (RKDHAR) | 39
85 | 6mer-1-1130 (RKATFR) | 31
86 | 6mer-1-1131 (RKDNIK) | 42
87 | 6mer-1-1132 (RRKAER) | 31
88 | 6mer-1-1133 (KKPNIK) | 24

Row | Substance | Binding affinity [Ru]
89 | 6mer-1-1134 (KRMSWK) | 22
90 | 6mer-1-1135 (KKHTER) | 26
91 | 6mer-1-1136 (KKIEIK) | 34
92 | 6mer-1-1137 (KRFTDK) | 33
93 | 6mer-1-1138 (KRDCFR) | 21
94 | 6mer-1-1139 (KKMENR) | 36
95 | 6mer-1-1140 (KRATMK) | 43
96 | 6mer-1-1141 (KRNMHK) | 40
97 | 6mer-1-1142 (KKETPR) | 24
98 | 6mer-1-1143 (KRHEFK) | 32
99 | 6mer-1-1144 (KKCMGR) | 25
100 | 6mer-1-1145 (RRDCKK) | 40
101 | 6mer-1-1146 (KKMMPK) | 34
102 | 6mer-1-1147 (RKAPHR) | 35
103 | 6mer-1-1148 (RRCSHR) | 31
104 | 6mer-1-1149 (RKMTPK) | 30
105 | 6mer-1-1150 (KRKWWR) | 34
106 | 6mer-1-1151 (KKKEAK) | 34
107 | 6mer-1-1152 (RKYKEK) | 23
108 | 6mer-1-1153 (RKHNKK) | 23
109 | 6mer-1-1154 (RKCEKR) | 41
110 | 6mer-1-1155 (RKKEKR) | 28

Row | Substance | Binding affinity [Ru]
111 | 6mer-1-1156 (KRYTVR) | 37
112 | 6mer-1-1157 (RKESVR) | 36
113 | 6mer-1-1158 (RKPMMK) | 33
114 | 6mer-1-1159 (RRAWPR) | 39
115 | 6mer-1-1160 (RRDWAK) | 29
116 | 6mer-1-1161 (KRHWVK) | 40
117 | 6mer-1-1162 (KKCDHR) | 41
118 | 6mer-1-1163 (RKCAFK) | 21
119 | 6mer-1-1164 (KKHHAK) | 41
120 | 6mer-1-1165 (RRATWR) | 29
121 | 6mer-1-1166 (KKEEKR) | 22
122 | 6mer-1-1167 (KRHMMK) | 42
123 | 6mer-1-1168 (KKEKFR) | 40
124 | 6mer-1-1169 (RKMDIR) | 32
125 | 6mer-1-1170 (KKYNPK) | 25
126 | 6mer-1-1171 (RKIAFK) | 40
127 | 6mer-1-1172 (RRFNFR) | 23
128 | 6mer-1-1173 (KKIPMK) | 26
129 | 6mer-1-1174 (RKDAIR) | 30
130 | 6mer-1-1175 (RKTWEK) | 23
131 | 6mer-1-1176 (KKADHK) | 21
132 | 6mer-1-1177 (RRHTMR) | 21

Row | Substance | Binding affinity [Ru]
133 | 6mer-1-1178 (RKKMAK) | 29
134 | 6mer-1-1179 (KRMTPR) | 40
135 | 6mer-1-1180 (KRPPPK) | 34
136 | 6mer-1-1181 (RRMDAK) | 21
137 | 6mer-1-1182 (KKTCHR) | 35
138 | 6mer-1-1183 (RKIHNK) | 35
139 | 6mer-1-1184 (RRDTVK) | 30
140 | 6mer-1-1185 (KKEMMK) | 29
141 | 6mer-1-1186 (KKNNAK) | 37
142 | 6mer-1-1187 (RRHAHK) | 26
143 | 6mer-1-1188 (RRMNER) | 41
144 | 6mer-1-1189 (KKCHWR) | 40
145 | 6mer-1-1190 (KKCMKR) | 29
146 | 6mer-1-1191 (RKYTKK) | 39
147 | 6mer-1-1192 (RKDDDR) | 36
148 | 6mer-1-1193 (KKPTNK) | 33
149 | 6mer-1-1194 (KKTHAK) | 22
150 | 6mer-1-1195 (KRDEDK) | 25
151 | 6mer-1-1196 (KKTTGR) | 25
152 | 6mer-1-1197 (KRPMAK) | 21

same assay, conditions: SPR, peptides tested at 10 μM; 6mer-1 Bottom sequence

Row | Substance | Binding affinity [Ru]
153 | 6mer-1-1198 (RRATER) | 28
154 | 6mer-1-1199 (KKTNKR) | 39
155 | 6mer-1-1200 (RKACEK) | 21

same assay, conditions: SPR, peptides tested at 10 μM; 6mer-1 Top sequence

Row | Substance | Binding affinity [Ru]
156 | 6mer-1-1405 (KKVQTR) | 148
157 | 6mer-1-1458 (RKGQLK) | 139
